Experimental data reported in patent publication US20230020406A1 (published 2023).
Ends that are not written are not given here. * marks the point of attachment. Biotin = O=C1N[C@H]2[C@H](CS[C@H]2CCCCC(=O)*)N1

T1: AA111-228 DNA-binding domain of RXR-alpha (UniProt P19793 111-228)
T1 construct: Bought recombinant protein (Abcam), adsorbed to the plate; also called RXRa-DBD
T1 sequence (looked up): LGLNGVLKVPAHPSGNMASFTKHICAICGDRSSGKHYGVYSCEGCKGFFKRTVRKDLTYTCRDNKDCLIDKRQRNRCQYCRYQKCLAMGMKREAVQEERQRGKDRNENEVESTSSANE

B1: immodulator peptide IM4 (peptide)
peptide: Biotin-RNGNFHPKQCHPALDGQRGKCW
modifications: cysteine pairing not given here; also: complexed with Streptavidin-Alexa 488 conjugate (SA488)
notes: Synthetic peptide
B2: immodulator peptide IM2 (peptide)
peptide: Biotin-KHGLYNLKQCKMSLNGQRGECW
modifications: cysteine pairing not given here; also: complexed with Streptavidin-Alexa 488 conjugate (SA488)
notes: Synthetic peptide
B3: immodulator peptide IM1 (peptide)
peptide: Biotin-KNGFYHSRQCETSMDGEAGLCW
modifications: cysteine pairing not given here; also: complexed with Streptavidin-Alexa 488 conjugate (SA488)
notes: Synthetic peptide with an IGFBP-derived core
B4: immodulator peptide IM3 (peptide)
peptide: Biotin-KKGFYKKKQCRPSKGRKRGFCW
modifications: cysteine pairing not given here; also: complexed with Streptavidin-Alexa 488 conjugate (SA488)
notes: IGFBP-3-derived core; also called 1M3
B5: immodulator peptide IM6 (peptide)
peptide: Biotin-HRGFYRKRQCRSSQGQRRGPCW
modifications: cysteine pairing not given here; also: complexed with Streptavidin-Alexa 488 conjugate (SA488)
notes: Synthetic peptide; also called 1M6
B6: immodulator peptide IM5 (peptide)
peptide: Biotin-RKGFYKRKQCKPSRGRKRGICW
modifications: cysteine pairing not given here; also: complexed with Streptavidin-Alexa 488 conjugate (SA488)
notes: Synthetic peptide; also called 1M5

What follows are binders tested against T1, AA111-228 DNA-binding domain of … (assay: plate assay: 1 ug/well RXRa-DBD adsorbed, 800 ng/well SA488-labelled peptide, fluorometer 485/525 nm).
Protocol: Experiment x3A. […] 1 ug/well recombinant RXRa-DBD (Abcam, Cambridge, Mass.) was adsorbed to wells of a 96-well plate for 60 minutes at RT, then blocked with 200 uL 1% BSA in PBS buffer overnight. […] The plate was incubated for 60 min at room temperature, washed and counted in a standard fluorometer (excitation/emission 485/525 nm). Background (buffer alone) was subtracted.

Fluorescence	Binder
27 fluorescence units (background subtracted)	B1
2 fluorescence units (background subtracted)	B2
670 fluorescence units (background subtracted)	B3
6570 fluorescence units (background subtracted)	B4
587 fluorescence units (background subtracted)	B5
6800 fluorescence units (background subtracted)	B6
